Numbering of substitutions follows the chain as printed.
B1: 5E11-TCB (bispecific antibody, human IgG1, kappa, L234A L235A)
light 1: DIVLTQSPALAVSPGQRATISCRASQSVSISGINLMNWYQQKPGQQPKLLIYHASILASGIPTRFSGSGSGTDFTLTIDPVQADDIATYYCQQTRESPLTFGSGTNLEIKRTVAAPSVFIFPPSDRKLKSGTASVVCLLNNFYPREAKVQWKVDNALQSGNSQESVTEQDSKDSTYSLSSTLTLSKADYEKHKVYACEVTHQGLSSPVTKSFNRGEC
light 2: EVQLLESGGGLVQPGGSLRLSCAASGFTFSTYAMNWVRQAPGKGLEWVSRIRSKYNNYATYYADSVKGRFTISRDDSKNTLYLQMNSLRAEDTAVYYCVRHGNFGNSYVSWFAYWGQGTLVTVSSASVAAPSVFIFPPSDEQLKSGTASVVCLLNNFYPREAKVQWKVDNALQSGNSQESVTEQDSKDSTYSLSSTLTLSKADYEKHKVYACEVTHQGLSSPVTKSFNRGEC
heavy 1: ELQLEQSGGGLVQPGGSLTLSCAASGFTFSKYAMAWVRQAPTKGLEWVASISTGGVNTYYRDSVKARFTISRDNAKNTQYLQMDSLRSEDTATYYCATHTGDYFDYWGQGVMVTVSSASTKGPSVFPLAPSSKSTSGGTAALGCLVEDYFPEPVTVSWNSGALTSGVHTFPAVLQSSGLYSLSSVVTVPSSSLGTQTYICNVNHKPSNTKVDEKVEPKSCDKTHTCPPCPAPEAAGGPSVFLFPPKPKDTLMISRTPEVTCVVVDVSHEDPEVKFNWYVDGVEVHNAKTKPREEQYNSTYRVVSVLTVLHQDWLNGKEYKCKVSNKALGAPIEKTISKAKGQPREPQVCTLPPSRDELTKNQVSLSCAVKGFYPSDIAVEWESNGQPENNYKTTPPVLDSDGSFFLVSKLTVDKSRWQQGNVFSCSVMHEALHNHYTQKSLSLSPGK
heavy 2: not shown
notes: 2+1 anti-GPRC5D/anti-CD3 T cell bispecific: LC1 (GPRC5D), LC2 (CD3 crossed VH-CL), HC hole, HC knob; also called 5E11p-CH2527
B2: B72-TCB (bispecific antibody, human IgG1, kappa, L234A L235A)
heavy 1: not shown
light 1: B1 light 2 with L5V, S30N, S49A, D64A, T80S, R89K, A90T, V99A
heavy 2: QVQLVQSGAEVKKPGASVKVSCKASGYSFTGYTMNWVRQAPGQGLEWMGLINPYNSDTNYAQKLQGRVTMTTDTSTSTAYMELRSLRSDDTAVYYCARVALRVALDYWGQGTLVTVSSASTKGPSVFPLAPSSKSTSGGTAALGCLVEDYFPEPVTVSWNSGALTSGVHTFPAVLQSSGLYSLSSVVTVPSSSLGTQTYICNVNHKPSNTKVDEKVEPKSCDKTHTCPPCPAPEAAGGPSVFLFPPKPKDTLMISRTPEVTCVVVDVSHEDPEVKFNWYVDGVEVHNAKTKPREEQYNSTYRVVSVLTVLHQDWLNGKEYKCKVSNKALGAPIEKTISKAKGQPREPQVCTLPPSRDELTKNQVSLSCAVKGFYPSDIAVEWESNGQPENNYKTTPPVLDSDGSFFLVSKLTVDKSRWQQGNVFSCSVMHEALHNHYTQKSLSLSPGK
light 2: DIQMTQSPSSLSASVGDRVTITCKASQNVATHVGWYQQKPGKAPKRLIYSASYRYSGVPSRFSGSGSGTEFTLTISNLQPEDFATYYCQQYNRYPYTFGQGTKLEIKRTVAAPSVFIFPPSDRKLKSGTASVVCLLNNFYPREAKVQWKVDNALQSGNSQESVTEQDSKDSTYSLSSTLTLSKADYEKHKVYACEVTHQGLSSPVTKSFNRGEC
B3: 5F11-TCB (bispecific antibody, human IgG1, kappa, L234A L235A)
light 1: DIVMTQAPLSVSVTPGESASISCRSSKSLLHSNGITYVYWYFQKPGKSPQVLIYRMSNLASGVPDRFSGSGSETDFTLKISRVEAEDVGIYHCGQLLENPYTFGAGTELELKRTVAAPSVFIFPPSDRKLKSGTASVVCLLNNFYPREAKVQWKVDNALQSGNSQESVTEQDSKDSTYSLSSTLTLSKADYEKHKVYACEVTHQGLSSPVTKSFNRGEC
light 2: B1 light 2
heavy 1: EVQLVESGGGLVQPGRSLKLSCAASGFSFSNYGMAWVRQAATKGLEWVASISTGGGNTYYRDSVKGRFIVSRDNAKNTQYLQMDSLRSEDTATYYCTRHDRGGLYWGQGVMVTVSSASTKGPSVFPLAPSSKSTSGGTAALGCLVEDYFPEPVTVSWNSGALTSGVHTFPAVLQSSGLYSLSSVVTVPSSSLGTQTYICNVNHKPSNTKVDEKVEPKSCDKTHTCPPCPAPEAAGGPSVFLFPPKPKDTLMISRTPEVTCVVVDVSHEDPEVKFNWYVDGVEVHNAKTKPREEQYNSTYRVVSVLTVLHQDWLNGKEYKCKVSNKALGAPIEKTISKAKGQPREPQVCTLPPSRDELTKNQVSLSCAVKGFYPSDIAVEWESNGQPENNYKTTPPVLDSDGSFFLVSKLTVDKSRWQQGNVFSCSVMHEALHNHYTQKSLSLSPGK
heavy 2: not shown
notes: 2+1 anti-GPRC5D/anti-CD3 T cell bispecific: LC1 (GPRC5D), LC2 (CD3 crossed VH-CL), HC hole, HC knob; also called 5F11p-CH2527
B4: 5F11(VH1b + VL2a)-C122-TCB (P1AE6623) (bispecific antibody, human IgG1, kappa, L234A L235A)
light 1: DIVMTQSPLSLPVTPGEPASISCRSSKSLLHSNGITYVYWYLQKPGQSPQLLIYRMSNRASGVPDRFSGSGSGTDFTLKISRVEAEDVGVYHCGQLLENPYTFGQGTKLEIKRTVAAPSVFIFPPSDRKLKSGTASVVCLLNNFYPREAKVQWKVDNALQSGNSQESVTEQDSKDSTYSLSSTLTLSKADYEKHKVYACEVTHQGLSSPVTKSFNRGEC
light 2: B1 light 2 with T28Q, T31S, G102T, N103T, G105P, N106S, W111Y, F112Y, A113G
heavy 1: EVQLVESGGGVVQPGRSLRLSCAASGFSFSNYGMAWVRQAPGKGLEWVASISTGGGNTYYRDSVKGRFTISRDNAKNTLYLQMNSLRAEDTAVYYCTRHDRGGLYWGQGTMVTVSSASTKGPSVFPLAPSSKSTSGGTAALGCLVEDYFPEPVTVSWNSGALTSGVHTFPAVLQSSGLYSLSSVVTVPSSSLGTQTYICNVNHKPSNTKVDEKVEPKSCDKTHTCPPCPAPEAAGGPSVFLFPPKPKDTLMISRTPEVTCVVVDVSHEDPEVKFNWYVDGVEVHNAKTKPREEQYNSTYRVVSVLTVLHQDWLNGKEYKCKVSNKALGAPIEKTISKAKGQPREPQVCTLPPSRDELTKNQVSLSCAVKGFYPSDIAVEWESNGQPENNYKTTPPVLDSDGSFFLVSKLTVDKSRWQQGNVFSCSVMHEALHNHYTQKSLSLSPGK
heavy 2: not shown
notes: 2+1 TCB: LC1 (anti-GPRC5D), LC2 (anti-CD3 crossed), HC1 Fc hole, HC2 Fc knob
B5: 5E11(VH1d + VL2a)-C122-TCB (P1AE6626) (bispecific antibody, human IgG1, kappa, L234A L235A)
light 1: EIVLTQSPGTLSLSPGERATLSCRASQSVSISGINLMNWYQQKPGQQPRLLIYHASILASGIPDRFSGSGSGTDFTLTISRLEPEDFAVYYCQQTRESPLTFGQGTRLEIKRTVAAPSVFIFPPSDRKLKSGTASVVCLLNNFYPREAKVQWKVDNALQSGNSQESVTEQDSKDSTYSLSSTLTLSKADYEKHKVYACEVTHQGLSSPVTKSFNRGEC
light 2: B1 light 2 with T28Q, T31S, G102T, N103T, G105P, N106S, W111Y, F112Y, A113G
heavy 1: ELQLLESGGGLVQPGGSLRLSCAASGFTFSKYAMAWVRQAPGKGLEWVASISTGGVNTYYADSVKGRFTISRDNAKNTLYLQMNSLRAEDTAVYYCATHTGDYFDYWGQGTMVTVSSASTKGPSVFPLAPSSKSTSGGTAALGCLVEDYFPEPVTVSWNSGALTSGVHTFPAVLQSSGLYSLSSVVTVPSSSLGTQTYICNVNHKPSNTKVDEKVEPKSCDKTHTCPPCPAPEAAGGPSVFLFPPKPKDTLMISRTPEVTCVVVDVSHEDPEVKFNWYVDGVEVHNAKTKPREEQYNSTYRVVSVLTVLHQDWLNGKEYKCKVSNKALGAPIEKTISKAKGQPREPQVCTLPPSRDELTKNQVSLSCAVKGFYPSDIAVEWESNGQPENNYKTTPPVLDSDGSFFLVSKLTVDKSRWQQGNVFSCSVMHEALHNHYTQKSLSLSPGK
heavy 2: not shown
notes: as for B4

Columns and labels:
human GPRC5D [1] = biological target: T1, human GPRC5D (human, UniProt Q9NZD1 1-345); assay: cell-based or functional assay
human GPRC5D [2] = biological target: T1, human GPRC5D; assay: cell-based or functional assay; remark: listed apart in the source
human GPRC5D [3] = biological target: T1, human GPRC5D; assay: flow cytometry on NCI-H929 cells; paragraph 550 says these values were falsely calculated by a factor of 10 (too low)
Method: (§1) To measure the binding to GPRC5D, we performed a flow cytometry-based binding assay on reported multiple myeloma cell lines (Lombardi et al., Molecular characterization of human multiple myeloma cell lines by integrative genomics: insights into the biology of the disease; Genes Chromosomes Cancer. 2007 March; 46(3):226-38). The cell line NCI-H929 (ATCC® CRL-9068) was cultured in RPMI 1640 with Glutamax medium (Gibco) supplemented with 10% FBS, 1× Penicillin/Streptomycin (Gibco), 1× Sodium Pyruvate (Gibco) and 50 μM beta-Mercaptoethanol (Gibco). Jurkat-NFAT reporter cells (a CD3-expressing human acute lymphatic leukemia reporter cell line with a NFAT promoter, GloResponse Jurkat NFAT-RE-luc2P, Promega #CS176501) were cultured in RPMI 1640, containing 2 g/l Glucose, 2 g/l NaHCO₃, 10% FCS, 25 mM HEPES, 2 mM L-Glutamine, 1×NEAA, 1× Sodium-pyruvate and 200 μg/ml Hygromycin B.
(§2) Flow cytometry acquisition was performed on a custom-designed BD Biosciences Fortessa and analyzed using BD Diva. EC50 values were calculated, using GraphPad Prism software.

human GPRC5D [4] = biological target: T1, human GPRC5D; assay: cell-based or functional assay; remark: listed apart in the source
human CD3 = biological target: T2, human CD3 (human, UniProt P07766 23-207); assay: flow cytometry on Jurkat-NFAT cells; paragraph 550 says these values were falsely calculated by a factor of 10 (too low)
T2 construct: Expressed on Jurkat-NFAT reporter cells as part of the TCR/CD3 complex; also called hCD3; CD3 epsilon
Method: as §1, §2

human GPRC5D [5] = biological target: T1, human GPRC5D; assay: cell-based or functional assay; remark: listed apart in the source
human GPRC5D [6] = biological target: T1, human GPRC5D; assay: cell-based or functional assay; remark: listed apart in the source

T2 sequence (P07766 23-207 limits assumed): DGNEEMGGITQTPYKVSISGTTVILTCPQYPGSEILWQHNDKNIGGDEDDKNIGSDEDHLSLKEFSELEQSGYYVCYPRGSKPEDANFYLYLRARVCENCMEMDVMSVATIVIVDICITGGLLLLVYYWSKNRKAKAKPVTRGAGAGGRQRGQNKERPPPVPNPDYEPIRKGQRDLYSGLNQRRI
T1 sequence (Q9NZD1 whole entry): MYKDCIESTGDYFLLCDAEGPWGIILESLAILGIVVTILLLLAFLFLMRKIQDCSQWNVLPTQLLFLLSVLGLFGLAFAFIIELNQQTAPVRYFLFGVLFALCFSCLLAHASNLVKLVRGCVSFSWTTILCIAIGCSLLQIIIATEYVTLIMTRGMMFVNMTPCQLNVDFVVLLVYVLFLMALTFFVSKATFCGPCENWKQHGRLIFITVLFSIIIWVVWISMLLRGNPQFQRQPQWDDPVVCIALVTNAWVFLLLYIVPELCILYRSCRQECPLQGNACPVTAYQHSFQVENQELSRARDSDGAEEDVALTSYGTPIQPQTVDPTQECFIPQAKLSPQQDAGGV

Row | Binder | EC50 in vitro killing assay, AMO-1 (human GPRC5D [1]) [nM] | EC50 in vitro killing assay, EJM (human GPRC5D [1]) [nM] | EC50 in vitro killing assay, L363 (human GPRC5D [1]) [nM] | EC50 in vitro killing assay, MOLP-2 (human GPRC5D [1]) [nM] | EC50 in vitro killing assay, NCI-H929 (human GPRC5D [1]) [nM] | EC50 in vitro killing assay, OPM-2 (human GPRC5D [1]) [nM] | EC50 in vitro killing assay, RPMI (human GPRC5D [1]) [nM] | EC50 of anti-GPRC5D-TCB mediated killing, AMO-1 (human GPRC5D [2]) [nM] | EC50 of anti-GPRC5D-TCB mediated killing, L363 (human GPRC5D [2]) [nM] | EC50 of anti-GPRC5D-TCB mediated killing, NCI-H929 (human GPRC5D [2]) [nM] | EC50 of anti-GPRC5D-TCB mediated killing, RPMI-8226 (human GPRC5D [2]) [nM] | EC50 (human GPRC5D [3]) [nM] | AUC, activation of Jurkat-NFAT reporter cells in presence of RPMI-8226 cells (human GPRC5D [4]) | EC50 (pM), activation of Jurkat-NFAT reporter cells in presence of RPMI-8226 cells (human GPRC5D [4]) [pM] | EC50 (human CD3) [nM] | also measured
1 | B1 | 0.008 | 0.011 | 0.017 | 0.018 | 0.007 | 0.002 | 0.064 | 0.014 | 0.012 | 0.007 | 0.024 | 3.36 | 265000 | 157 | 3.67 | 
2 | B2 | 0.109 | 0.06 | 0.058 | 0.124 | 0.058 | 0.171 | 0.193 |  |  |  |  |  |  |  |  | EC50 (pM), TCB-mediated tumor cell lysis, AMO-1 (human GPRC5D [5]): 79.9 pM; EC50 (pM), TCB-mediated tumor cell lysis, IM-9 (human GPRC5D [5]): 198 pM; EC50 (pM), TCB-mediated tumor cell lysis, LP-1 (human GPRC5D [5]): 49 pM; EC50 (pM), TCB-mediated tumor cell lysis, NCI-H929 (human GPRC5D [5]): 26.9 pM; AUC, TCB-mediated tumor cell lysis, AMO-1 (human GPRC5D [6]): 5.45e+07; AUC, TCB-mediated tumor cell lysis, IM-9 (human GPRC5D [6]): 8.6e+06; AUC, TCB-mediated tumor cell lysis, LP-1 (human GPRC5D [6]): 1.15e+07; AUC, TCB-mediated tumor cell lysis, NCI-H929 (human GPRC5D [6]): 1.09e+07
3 | B3 | 0.006 | 0.003 | 0.003 | 0.001 | 0.004 | 0.001 | 0.006 | 0.003 | 0.001 | 0.001 | 0.002 | 0.18 | 393000 | 14 | 2.31 | 
4 | B4 |  |  |  |  |  |  |  |  |  |  |  | 0.36 | 778000 | 8.9 |  | 
5 | B5 |  |  |  |  |  |  |  |  |  |  |  | 0.85 | 582000 | 49.7 | 7.8 | 

Source: US20220259318A1 (Hoffmann-La Roche, published 2022)
